This note sets out measurements from patent publication US20230114801A1 (SYSTIMMUNE, published 2023).

Bounds are passed on as bounds.

What all share (test): BLI (Octet), unstapled control mAb or Fc-scFv
A general note: In BLI a coated tip is dipped into the sample, and binding shifts an interference pattern.

The target of one experiment is T1, CEA (UniProt P06731 35-685, limits assumed).
T1 sequence (looked up): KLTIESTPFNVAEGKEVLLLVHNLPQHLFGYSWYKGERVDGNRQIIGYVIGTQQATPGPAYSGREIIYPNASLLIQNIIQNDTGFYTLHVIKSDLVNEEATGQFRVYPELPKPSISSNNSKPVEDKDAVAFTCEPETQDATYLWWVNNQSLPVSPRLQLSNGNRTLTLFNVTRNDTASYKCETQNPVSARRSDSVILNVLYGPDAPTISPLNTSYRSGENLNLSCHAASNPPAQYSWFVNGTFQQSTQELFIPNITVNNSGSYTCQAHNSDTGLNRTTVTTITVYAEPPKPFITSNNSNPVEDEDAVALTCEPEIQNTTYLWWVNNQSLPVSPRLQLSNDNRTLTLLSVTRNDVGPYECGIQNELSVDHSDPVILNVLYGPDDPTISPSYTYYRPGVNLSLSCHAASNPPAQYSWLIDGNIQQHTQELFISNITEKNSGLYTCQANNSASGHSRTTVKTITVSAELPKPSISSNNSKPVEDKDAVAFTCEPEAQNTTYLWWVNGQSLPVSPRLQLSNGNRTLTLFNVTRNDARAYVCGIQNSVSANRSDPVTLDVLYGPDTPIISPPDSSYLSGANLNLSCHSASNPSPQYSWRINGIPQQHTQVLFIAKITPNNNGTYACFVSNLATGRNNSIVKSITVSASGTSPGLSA

In the next experiment the target is T2, human 4-1BB (human, UniProt Q07011 24-186, limits assumed).
T2 construct: Soluble antigen in Octet; construct not described

The target in another experiment is T3, human PD-L1 (human, UniProt Q9NZQ7 19-238).
T3 construct: Soluble antigen in Octet; bought; also called human PD-L1 (Acro PD1-H5229)

B1: SI-20C14 (antibody, human IgG1, kappa, V domains shown)
VH: EVQLVESGGGLVQPGGSLRLSCAASGFSFSGTQYVCWVRQAPGKGLEWIGCIYVDVANTYYATSVKGRFTISRDNSKNTLYLQMNSLRAEDTAVYYCASHDTVCAGCGLDLWGQGTLVTVSS
VL: DIQMTQSPSTLSASVGDRVTITCQASENIYSNLAWYQQKPGKAPKLLIYDASTLASGVPSRFSGSGSGTEFTLTISSLQPDDFATYYCQSTYYNNIIYGAAFGGGTKVEIKR
notes: monoclonal antibody control for the αCEA domain; also called αCEA mAb 656E11; SI-20C14 (anti-CEA 656E11)
In the case of B1, the Kd in the experiment with CEA is under 0.001 nM.

B2: SI-35FS11 (Fc fusion)
chain: EPKSSDKTHTCPPCPAPEAAGAPSVFLFPPKPKDTLMISRTPEVTCVVVDVSHEDPEVKFNWYVDGVEVHNAKTKPREEQYNSTYRVVSVLTVLHQDWLNGKEYKCAVSNKALPAPIEKTISKAKGQPREPQVYTLPPSRDELTKNQVSLTCLVKGFYPSDIAVEWESNGQPENNYKTTPPVLDSDGSFFLYSKLTVDKSRWQQGNVFSCSVMHEALHNHYTQKSLSLSPGGGGGSGGGGSRSLVESGGGLVQPGGSLRLSCTASGFTISSYHMQWVRQAPGKGLEYIGTISSGGNVYYASSARGRFTISRPSSKNTVDLQMNSLRAEDTAVYYCARDSGYSDPMWGQGTLVTVSSGGGGSGGGGSGGGGSGGGGSDVVMTQSPSSVSASVGDRVTITCQASQNIRTYLSWYQQKPGKAPKLLIYAAANLASGVPSRFSGSGSGTDFTLTISDLEPGDAATYYCQSTYLGTDYVGGAFGGGTKVEIK
notes: Fc-scFv control for the α4-1BB domain; also called SI-35SF11; α4-1BB Fc-scFv
B2 yielded a Kd with human 4-1BB of 14.9 nM.

B3: SI-3FS11 (Fc fusion)
chain: EPKSSDKTHTCPPCPAPEAAGAPSVFLFPPKPKDTLMISRTPEVTCVVVDVSHEDPEVKFNWYVDGVEVHNAKTKPREEQYNSTYRVVSVLTVLHQDWLNGKEYKCAVSNKALPAPIEKTISKAKGQPREPQVYTLPPSRDELTKNQVSLTCLVKGFYPSDIAVEWESNGQPENNYKTTPPVLDSDGSFFLYSKLTVDKSRWQQGNVFSCSVMHEALHNHYTQKSLSLSPGGGGGSGGGGSEVQLLESGGGLVQPGGSLRLSCAASGFSFSSGYDMCWVRQAPGKGLEWIACIAAGSAGITYDANWAKGRFTISRDNSKNTLYLQMNSLRAEDTAVYYCARSAFSFDYAMDLWGQGTLVTVSSGGGGSGGGGSGGGGSGGGGSDIQMTQSPSTLSASVGDRVTITCQASQSISSHLNWYQQKPGKAPKLLIYKASTLASGVPSRFSGSGSGTEFTLTISSLQPDDFATYYCQQGYSWGNVDNVFGGGTKVEIK
notes: Fc-scFv control for the αPD-L1 domain; also called SI-3SF11; αPD-L1 Fc-scFv
With B3, the Kd with human PD-L1 was 0.94 nM.

One may read the Kd as a measure of binding affinity in units of concentration.
